For 23 sequences, IC50 results are on record in the Immune Epitope Database (IEDB).

One experiment deals with HLA-A*68:02. Kind of experiment: IEDB peptide-MHC binding, cellular MHC/competitive/fluorescence; ≥ and ≤ were set here for values at or beyond the usual limits of such assays.
A further experiment concerns the target HLA-A*02:02. Kind of experiment: IEDB peptide-MHC binding, purified MHC/competitive/radioactivity; ≥ and ≤ were set here for values at or beyond the usual limits of such assays.
For a further experiment, the target named is HLA-A*02:06. Described as above.
In another experiment the target is HLA-A*02:03. The experiment is described as above.
The next experiment deals with HLA-A*02:01. The experiment is described as above.
The mark [1] stands for this setting: source organism: Vaccinia virus WR.
Setting [2] is: source organism: Hepacivirus hominis.
[3] abbreviates: source organism: Influenza A virus.
[4] abbreviates: source organism: Mammarenavirus whitewaterense.
Setting [5] is: source organism: Mammarenavirus brazilense.

As for VMPEKRNVV, the IC50 is 6590 nM in the experiment with HLA-A*68:02 (setting [1]); 1100 nM in the experiment with HLA-A*02:02 (setting [1]); 3290 nM with HLA-A*02:06 (setting [1]); 23 nM in the experiment with HLA-A*02:03 (setting [1]); 495 nM in the experiment with HLA-A*02:01 (setting [1]).

In the case of VMWKCLIRL, the IC50 was 7600 nM with HLA-A*68:02 (setting [2]); 377 nM in the experiment with HLA-A*02:02 (setting [2]); 947 nM in the experiment with HLA-A*02:06 (setting [2]); 823 nM in the experiment with HLA-A*02:03 (setting [2]); 53 nM in the experiment with HLA-A*02:01 (setting [2]).

VQFSILNNPV: the IC50 with HLA-A*68:02 (setting [1]) was 39700 nM; with HLA-A*02:02 (setting [1]), 131 nM; with HLA-A*02:06 (setting [1]) it was 186 nM; with HLA-A*02:03 (setting [1]), 369 nM; with HLA-A*02:01 (setting [1]), 1910 nM.

Take VTYNIKPVIV: the IC50 is 8340 nM with HLA-A*68:02 (setting [1]); 4920 nM with HLA-A*02:02 (setting [1]); 358 nM with HLA-A*02:06 (setting [1]); 116 nM with HLA-A*02:03 (setting [1]); 3000 nM in the experiment with HLA-A*02:01 (setting [1]).

For WIKDIMTST, the IC50 with HLA-A*68:02 (setting [1]) was 9480 nM; in the experiment with HLA-A*02:02 (setting [1]), 193 nM; with HLA-A*02:06 (setting [1]) it was 136 nM; with HLA-A*02:03 (setting [1]) it was 12 nM; with HLA-A*02:01 (setting [1]), 948 nM.

As to WLKDSAIMVA, the IC50 with HLA-A*68:02 (setting [1]) was determined as 10100 nM; in the experiment with HLA-A*02:02 (setting [1]) it was 15 nM; with HLA-A*02:06 (setting [1]) it was 4840 nM; in the experiment with HLA-A*02:03 (setting [1]) it was 1320 nM; with HLA-A*02:01 (setting [1]), 673 nM.

WMMLLIAQA: the IC50 was found to be 15800 nM with HLA-A*68:02 (setting [2]); 53 nM with HLA-A*02:02 (setting [2]); 712 nM with HLA-A*02:06 (setting [2]); 47 nM with HLA-A*02:03 (setting [2]); 75 nM in the experiment with HLA-A*02:01 (setting [2]).

Turning to YALCTLLHL, the IC50 with HLA-A*68:02 (source organism: SARS-CoV1) is 5620 nM; with HLA-A*02:02 (source organism: SARS-CoV1), 1320 nM; in the experiment with HLA-A*02:06 (source organism: SARS-CoV1), 1.5 nM; with HLA-A*02:03 (source organism: SARS-CoV1), 768 nM; with HLA-A*02:01 (source organism: SARS-CoV1) it was 8.7 nM.

YIEDELRRAA: the IC50 with HLA-A*68:02 (setting [1]) came out at 24800 nM; with HLA-A*02:02 (setting [1]), 628 nM; with HLA-A*02:06 (setting [1]) it was 204 nM; with HLA-A*02:03 (setting [1]), 166 nM; with HLA-A*02:01 (setting [1]), 573 nM.

Take YISRDELWA: the IC50 in the experiment with HLA-A*68:02 (setting [1]) amounted to 52700 nM; in the experiment with HLA-A*02:02 (setting [1]), 333 nM; with HLA-A*02:06 (setting [1]), 1200 nM; with HLA-A*02:03 (setting [1]), 242 nM; in the experiment with HLA-A*02:01 (setting [1]), 750 nM.

As to YLGHSAGFT, the IC50 amounted to 8450 nM with HLA-A*68:02 (setting [1]); 874 nM in the experiment with HLA-A*02:02 (setting [1]); 4540 nM with HLA-A*02:06 (setting [1]); 225 nM with HLA-A*02:03 (setting [1]); 1560 nM with HLA-A*02:01 (setting [1]).

As for YLGHSAGFTA, the half-maximal inhibitory concentration (IC50) amounted to 8220 nM in the experiment with HLA-A*68:02 (setting [1]); 16 nM with HLA-A*02:02 (setting [1]); 144 nM with HLA-A*02:06 (setting [1]); 86 nM in the experiment with HLA-A*02:03 (setting [1]); 21 nM with HLA-A*02:01 (setting [1]).

YLIRALTL: the concentration for half-maximal inhibition (IC50) in the experiment with HLA-A*68:02 (setting [3]) was 9520 nM; in the experiment with HLA-A*02:02 (setting [3]) it was 216 nM; with HLA-A*02:06 (setting [3]) it was 2520 nM; with HLA-A*02:03 (setting [3]), 145 nM; with HLA-A*02:01 (setting [3]) it was 607 nM.

In the case of YLLGDSDSVA, the IC50 in the experiment with HLA-A*68:02 (setting [1]) is 10700 nM; with HLA-A*02:02 (setting [1]), 2 nM; with HLA-A*02:06 (setting [1]), 135 nM; with HLA-A*02:03 (setting [1]), 23 nM; in the experiment with HLA-A*02:01 (setting [1]), 20 nM.

On to YLLGLSAIM, for which the IC50 came to 12100 nM with HLA-A*68:02 (source organism: SARS-CoV1); 1.7 nM in the experiment with HLA-A*02:02 (source organism: SARS-CoV1); 3.2 nM with HLA-A*02:06 (source organism: SARS-CoV1); 37 nM with HLA-A*02:03 (source organism: SARS-CoV1); 1.1 nM with HLA-A*02:01 (source organism: SARS-CoV1).

In the case of YLLMHLVSL, the IC50 with HLA-A*68:02 (setting [1]) was determined as 7750 nM; with HLA-A*02:02 (setting [1]) it was 0.18 nM; with HLA-A*02:06 (setting [1]) it was 0.25 nM; with HLA-A*02:03 (setting [1]) it was 1.4 nM; with HLA-A*02:01 (setting [1]) it was 3.5 nM.

For the sequence YLPEVISTIA, the IC50 with HLA-A*68:02 (setting [1]) is 7130 nM; with HLA-A*02:02 (setting [1]), 11 nM; with HLA-A*02:06 (setting [1]), 18 nM; with HLA-A*02:03 (setting [1]) it was 0.96 nM; with HLA-A*02:01 (setting [1]), 29 nM.

As to YLSDSDNIKI, the IC50 with HLA-A*68:02 (setting [1]) worked out at 7780 nM; with HLA-A*02:02 (setting [1]), 16 nM; with HLA-A*02:06 (setting [1]), 906 nM; with HLA-A*02:03 (setting [1]), 109 nM; with HLA-A*02:01 (setting [1]) it was 53 nM.

Take YLSGTDDEVI: the IC50 turned out to be 15800 nM with HLA-A*68:02 (setting [1]); 6.3 nM with HLA-A*02:02 (setting [1]); 947 nM with HLA-A*02:06 (setting [1]); 211 nM in the experiment with HLA-A*02:03 (setting [1]); 220 nM in the experiment with HLA-A*02:01 (setting [1]).

In the case of YLVTRNADV, the half-inhibitory concentration (IC50) in the experiment with HLA-A*68:02 (setting [2]) was at least 70000 nM; with HLA-A*02:02 (setting [2]), 55 nM; with HLA-A*02:06 (setting [2]), 4320 nM; with HLA-A*02:03 (setting [2]), 62 nM; in the experiment with HLA-A*02:01 (setting [2]) it was 296 nM.

On to YLYGIGSAVV, for which the IC50 with HLA-A*68:02 (setting [2]) was 5120 nM; in the experiment with HLA-A*02:02 (setting [2]) it was 12 nM; with HLA-A*02:06 (setting [2]) it was 285 nM; with HLA-A*02:03 (setting [2]), 3.5 nM; in the experiment with HLA-A*02:01 (setting [2]), 39 nM.

With YNLSLSAAV, the IC50 is at least 70000 nM in the experiment with HLA-A*68:02 (setting [4]); 868 nM with HLA-A*02:02 (setting [4]); 1660 nM in the experiment with HLA-A*02:06 (setting [4]); 1150 nM with HLA-A*02:03 (setting [4]); 255 nM with HLA-A*02:01 (setting [4]).

Regarding YNYSLSAAV, the half-inhibitory concentration (IC50) with HLA-A*68:02 (setting [5]) was at least 70000 nM; with HLA-A*02:02 (setting [5]), 79 nM; in the experiment with HLA-A*02:06 (setting [5]), 88 nM; with HLA-A*02:03 (setting [5]) it was 67 nM; with HLA-A*02:01 (setting [5]), 539 nM.

One may read the IC50 as the concentration that gives 50% inhibition.
